Source: patent US20220002700A1, “COMPUTATIONALLY-OPTIMIZED ACE2 PEPTIDES FOR COMPETITIVE INTERCEPTION OF SARS-CoV-2” (priority 2020, published 2022)

Tested on: viruses pseudotyped with the SARS-CoV-2 S protein
Format: cell-based

B1: 23-mer (A2N)-CHIPΔTPR fusion (protein)
chain: QNKTFLDKFNHEAEDLFYQSSLAMRLNFGDDIPSALRIAKKKRWNSIEERRIHQESELHSYLSRLIAAERERELEECQRNHEGDEDDSHVRAQQACIEAKHDKYMADMDELFSQVDEKRKKRDIPDYLCGKISFELMREPCITPSGITYDRKDIEEHLQRVGHFDPVTRSPLTQEQLIPNLAMKEVIDAFISENGWVEDY
  reduction of the infection rate of the pseudovirus: ~60%
